The term Kd denotes the concentration at which binding is half-saturated. For orientation: koff means the first-order rate constant of dissociation. A low value points to a long-lived complex. Usually kon stands for the rate constant with which the complex forms.

The target in assay [1] is Gonadotrophin releasing hormone 1 (GnRH1) (UniProt P01148). Briefly: SPR. (In SPR one partner is held on a chip, and binding of the other changes the refractive index at the surface.)
The target is the same in assay [2]. Briefly: SPR, Biacore T200; antibody captured on goat anti-mouse IgG on a CM5 chip, GnRH injected in 2-fold dilutions from 1024 nM.
Assay [3] has the same target. As to the kind of experiment: SPR (Biacore T200): antibody captured on goat anti-mouse IgG immobilized on a CM5 chip, GnRH injected in 2-fold dilutions from 1024 nM.

B1: SMI41 ascites IgG (antibody, V domains shown)
VH: QVTLKESGPGILRPSQTLDLTCSFSGFSLSTSGLSVGWIRQPSGKGLEWLAHIWWDDVKYFNPSLKSRLTISKDSSRNQVFLKITSVDTADSATYHCTRGPLGHGFDYWGQGTLVTVSA
VL: DVVMTQTPLSLPVSLGDQAFISCRSSQSLVHSDGNSYLHWYLQKPGQSPKLLIYKVSNRFSGVPDRFSGSGSGTDFTLKISRVEAEDLGLYFCSQTTHVPWTFGGGTKLEIK
In assay [1], B1 registered a dissociation constant Kd of 0.819 nM, a koff of 0.00467 s⁻¹ and a kon of 8.99e+06 M⁻¹ s⁻¹.

B2: SMI41-HEK293T-IgG (antibody, V domains shown)
VH: B1 VH
VL: DVVMTQTPLSLPVSLGDQAFISCRSSQSLVHSDGNSYLHWYLQKPGQSPKLLIYKVSNRFSGVPDRFSGSGSGTDFTLKISRVEAEDLGLYFCSQTTHVPWTFGGGTKLEIKR
In assay [1], B2 returned a Kd of 0.592 nM, a koff of 0.00282 s⁻¹ and a kon of 4.76e+06 M⁻¹ s⁻¹. In assay [2], this molecule came in with a Kd of 0.592 nM, a koff of 0.00282 s⁻¹ and a kon of 4.76e+06 M⁻¹ s⁻¹.

B3: HB-9094-HEK293T-IgG (antibody, V domains shown)
VH: QIQLVQSGPELKKPGETVKISCKASGYPFTNYGMNWVKQAPGKGLKWMGWINTYTGEPACADDFRGRFAISLETSARTAYLQINNLINEDTATYFCARTGGGRYNYGMDYWGQGTSVTVSS
VL: QIVLTQSPAIMSASPGEKVTITCSATSSVSYIHWFQQKPGTSPKLWIYSTSNLASGVPVRFSGSGSGTSYSLTISRMEAEDAATYYCQQRSSYPPTFGGGTKLEIKR
Regarding B3, in assay [1], the dissociation constant (Kd) amounted to 0.918 nM, the koff is 0.000249 s⁻¹ and the kon was found to be 272000 M⁻¹ s⁻¹. In assay [2], this molecule registered a Kd of 0.918 nM, a koff of 0.000249 s⁻¹ and a kon of 272000 M⁻¹ s⁻¹. Further, the Kd in assay [3] amounted to 0.27 nM.

The values above are taken from patent publication US20140223591A1.
